Consider two substances from publication PMC7090928.

For experiment [1], the target named is mCherry-EB3 full length (UniProt Q9UPY8).
Experiment [2] has the same target. Briefly: fluorescence correlation spectroscopy; 15 nM His-GFP-MTLS and 200 nM EB3 on dynamic MTs, no GUVs; peak intensity at passing MT tips against solution; 60 sites assumed in 6 dimer lengths, 1:1 EB3:MTLS assumed.
Experiment [3] concerns the target dynamic microtubules (porcine brain tubulin) (porcine). Put plainly: speed of membrane tube spreading on microtubules compared with a one-step model; His-GFP-MTLS bound to GUV membrane, no EB3; the attachment rate was chosen by comparing model curves for 8, 16 and 26 s^-1 with experimental data.
For experiment [4], the target named is mCherry-EB3 full length (UniProt Q9UPY8). Put plainly: single-molecule TIRF microscopy (dwell times and binding events on microtubules); 0.12 nM His-GFP-MTLS, 50 ms/frame, 200 nM mCherry-EB3 as tracer of plus ends; dwell times fitted with an exponential; MT tip taken as 200 nm long.
The target is the same in experiment [5]. The source holds these as a separate data set.

Sequence of UniProt Q9UPY8 (Q9UPY8 whole entry): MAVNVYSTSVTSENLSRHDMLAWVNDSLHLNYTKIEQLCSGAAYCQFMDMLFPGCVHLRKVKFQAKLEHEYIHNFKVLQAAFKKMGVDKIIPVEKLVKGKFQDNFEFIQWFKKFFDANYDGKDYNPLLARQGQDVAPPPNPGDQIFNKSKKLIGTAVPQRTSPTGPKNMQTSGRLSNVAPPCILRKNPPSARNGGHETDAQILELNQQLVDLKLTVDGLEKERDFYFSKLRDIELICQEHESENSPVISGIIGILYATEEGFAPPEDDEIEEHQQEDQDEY
Sequence of dynamic microtubules (porcine brain tubulin) (porcine) (P68363 whole entry, chain 1 of 2): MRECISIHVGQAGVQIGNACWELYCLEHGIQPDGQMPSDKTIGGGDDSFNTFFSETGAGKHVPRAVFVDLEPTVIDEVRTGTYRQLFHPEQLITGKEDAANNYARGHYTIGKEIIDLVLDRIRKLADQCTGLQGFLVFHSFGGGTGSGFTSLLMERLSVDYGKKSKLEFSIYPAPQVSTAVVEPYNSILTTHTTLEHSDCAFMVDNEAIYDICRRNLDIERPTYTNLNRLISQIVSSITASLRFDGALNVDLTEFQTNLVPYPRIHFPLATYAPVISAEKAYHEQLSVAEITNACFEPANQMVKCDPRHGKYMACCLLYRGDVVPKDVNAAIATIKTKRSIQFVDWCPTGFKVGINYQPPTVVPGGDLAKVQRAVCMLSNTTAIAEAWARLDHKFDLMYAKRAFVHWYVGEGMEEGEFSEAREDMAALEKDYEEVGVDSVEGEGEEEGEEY
Sequence of dynamic microtubules (porcine brain tubulin) (porcine) (P02554 whole entry, chain 2 of 2, further chain): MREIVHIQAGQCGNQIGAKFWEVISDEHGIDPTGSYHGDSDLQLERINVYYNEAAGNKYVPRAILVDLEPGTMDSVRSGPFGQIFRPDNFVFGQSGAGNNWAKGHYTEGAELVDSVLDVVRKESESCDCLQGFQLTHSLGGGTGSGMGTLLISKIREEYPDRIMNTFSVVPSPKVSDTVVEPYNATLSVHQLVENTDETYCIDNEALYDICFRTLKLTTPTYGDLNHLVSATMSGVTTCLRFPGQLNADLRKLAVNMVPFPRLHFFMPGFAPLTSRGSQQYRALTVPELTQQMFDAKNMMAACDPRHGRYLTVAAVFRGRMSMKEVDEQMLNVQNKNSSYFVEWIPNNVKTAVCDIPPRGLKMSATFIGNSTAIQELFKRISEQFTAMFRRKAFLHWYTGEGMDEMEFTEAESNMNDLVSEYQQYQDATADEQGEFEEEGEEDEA

In turn, “His-GFP-MTLS (from UniProt Q03001 7528-7570)” displayed a tubulation of GUVs on dynamic MTs at 200 nM EB3 and 15 nM His-GFP-MTLS with mCherry-EB3 full length [1] of 90%. The substance further yielded a maximum probability of being bound to the EB3-bound MT tip with mCherry-EB3 full length [2] of 0.46. Also, in experiment [3], the k on-m (estimated attachment rate of membrane-bound His-GFP-MTLS to the MT lattice, no EB3) was 16 s⁻¹. Also, the fold association rate at MT tips (with 200 nM mCherry-EB3) over the on-rate at the MT shaft in the experiment with mCherry-EB3 full length [4] was determined as 2.5 fold.
For “Bio-mCherry-MTLS (from UniProt Q03001 7528-7570)”, in the experiment with mCherry-EB3 full length [5], the duration of the first positive displacement of Bio-mCherry-MTLS-coated beads at growing MT tips with 100 nM EB3 (most events shorter than 1 s without EB3) came to 15 s.
